According to patent US20250313625A1 (ELPISCIENCE SUZHOU BIOPHARMA, published 2025):

T1: hFc tagged human LAG3 D1-D2 recombinant protein (human, UniProt P18627 23-261)
T1 construct: range 23-261; generated by Chempartner; also called hLAG3 D1-D2; not shown: human IgG Fc tag
T1 sequence (looked up): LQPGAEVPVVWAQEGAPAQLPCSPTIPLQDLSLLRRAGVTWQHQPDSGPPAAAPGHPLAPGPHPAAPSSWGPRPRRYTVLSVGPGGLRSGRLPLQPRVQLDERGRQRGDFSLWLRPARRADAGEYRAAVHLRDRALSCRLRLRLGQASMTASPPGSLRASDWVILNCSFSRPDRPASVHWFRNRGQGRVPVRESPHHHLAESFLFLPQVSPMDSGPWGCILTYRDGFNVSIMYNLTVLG

T2: human LAG3, full length, stably expressed on cells (human, UniProt P18627 23-525)
T2 construct: whole, on cells; also called CHOK1-human LAG3
T2 sequence (looked up): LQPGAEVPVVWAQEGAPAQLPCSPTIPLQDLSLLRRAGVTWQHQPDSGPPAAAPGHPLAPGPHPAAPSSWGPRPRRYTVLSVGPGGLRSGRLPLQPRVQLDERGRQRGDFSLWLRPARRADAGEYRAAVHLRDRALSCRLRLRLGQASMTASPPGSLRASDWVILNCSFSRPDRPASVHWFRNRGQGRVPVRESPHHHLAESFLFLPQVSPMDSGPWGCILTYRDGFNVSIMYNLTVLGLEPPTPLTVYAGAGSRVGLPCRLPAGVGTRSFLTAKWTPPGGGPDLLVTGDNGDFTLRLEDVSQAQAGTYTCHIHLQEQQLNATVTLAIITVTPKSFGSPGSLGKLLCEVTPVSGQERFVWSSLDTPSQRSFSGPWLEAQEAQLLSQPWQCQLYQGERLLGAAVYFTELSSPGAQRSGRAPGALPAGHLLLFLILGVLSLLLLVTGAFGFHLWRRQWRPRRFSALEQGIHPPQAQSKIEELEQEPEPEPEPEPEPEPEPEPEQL

T3: mouse LAG3, full length, stably expressed on CHOK1 cells (mouse, UniProt Q61790 24-521)
T3 construct: whole, on cells
T3 sequence (looked up): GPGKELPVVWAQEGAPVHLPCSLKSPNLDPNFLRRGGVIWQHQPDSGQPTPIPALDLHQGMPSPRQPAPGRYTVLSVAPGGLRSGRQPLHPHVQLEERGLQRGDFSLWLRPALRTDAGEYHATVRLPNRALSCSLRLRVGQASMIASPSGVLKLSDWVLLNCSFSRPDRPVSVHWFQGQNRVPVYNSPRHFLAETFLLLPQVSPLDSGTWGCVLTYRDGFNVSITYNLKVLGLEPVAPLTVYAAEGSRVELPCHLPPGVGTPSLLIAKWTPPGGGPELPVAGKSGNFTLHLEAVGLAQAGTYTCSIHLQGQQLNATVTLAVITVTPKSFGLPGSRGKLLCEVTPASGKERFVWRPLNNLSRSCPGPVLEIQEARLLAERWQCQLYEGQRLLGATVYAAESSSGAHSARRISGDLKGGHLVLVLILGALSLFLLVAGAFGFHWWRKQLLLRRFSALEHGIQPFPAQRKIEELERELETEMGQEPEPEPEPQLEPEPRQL

T4: hFc tagged human LAG3 ECD recombinant protein (human, UniProt P18627 23-450)
T4 construct: range 23-450; also called biotin labelled hFc tagged human LAG3 ECD; not shown: human IgG Fc tag
T4 sequence (looked up): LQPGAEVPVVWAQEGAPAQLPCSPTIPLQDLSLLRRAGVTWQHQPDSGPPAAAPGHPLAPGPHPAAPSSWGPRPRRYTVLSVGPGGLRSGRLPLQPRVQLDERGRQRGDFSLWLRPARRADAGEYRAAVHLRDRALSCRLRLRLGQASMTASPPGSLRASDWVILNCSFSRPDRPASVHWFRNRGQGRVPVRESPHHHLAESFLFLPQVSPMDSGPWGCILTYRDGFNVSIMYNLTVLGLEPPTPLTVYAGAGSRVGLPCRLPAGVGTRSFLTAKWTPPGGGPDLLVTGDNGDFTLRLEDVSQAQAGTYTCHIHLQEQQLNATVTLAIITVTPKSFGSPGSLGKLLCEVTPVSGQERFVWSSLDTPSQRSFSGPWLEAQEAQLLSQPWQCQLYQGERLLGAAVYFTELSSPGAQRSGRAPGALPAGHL

T5: mFc tagged human LAG3 ECD recombinant protein (human, UniProt P18627 23-450)
T5 construct: extracellular domain; purchased from Biointron; not shown: mouse IgG Fc (mFc) tag
T5 sequence (looked up): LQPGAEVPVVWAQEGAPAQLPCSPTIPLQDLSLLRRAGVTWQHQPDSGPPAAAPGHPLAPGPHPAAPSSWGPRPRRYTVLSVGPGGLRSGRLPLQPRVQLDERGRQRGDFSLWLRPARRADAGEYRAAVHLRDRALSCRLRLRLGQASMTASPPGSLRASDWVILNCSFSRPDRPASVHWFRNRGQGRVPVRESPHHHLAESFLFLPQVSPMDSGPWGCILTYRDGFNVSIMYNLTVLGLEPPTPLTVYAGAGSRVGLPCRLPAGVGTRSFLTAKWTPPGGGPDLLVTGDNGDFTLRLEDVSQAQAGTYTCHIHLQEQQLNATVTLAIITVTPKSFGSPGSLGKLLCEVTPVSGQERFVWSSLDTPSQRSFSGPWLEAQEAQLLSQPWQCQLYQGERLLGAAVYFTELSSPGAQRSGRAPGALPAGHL

T6: human LAG3 ECD recombinant protein (plate coated, tag not stated) (human, UniProt P18627 23-450)
T6 construct: extracellular domain
T6 sequence (looked up): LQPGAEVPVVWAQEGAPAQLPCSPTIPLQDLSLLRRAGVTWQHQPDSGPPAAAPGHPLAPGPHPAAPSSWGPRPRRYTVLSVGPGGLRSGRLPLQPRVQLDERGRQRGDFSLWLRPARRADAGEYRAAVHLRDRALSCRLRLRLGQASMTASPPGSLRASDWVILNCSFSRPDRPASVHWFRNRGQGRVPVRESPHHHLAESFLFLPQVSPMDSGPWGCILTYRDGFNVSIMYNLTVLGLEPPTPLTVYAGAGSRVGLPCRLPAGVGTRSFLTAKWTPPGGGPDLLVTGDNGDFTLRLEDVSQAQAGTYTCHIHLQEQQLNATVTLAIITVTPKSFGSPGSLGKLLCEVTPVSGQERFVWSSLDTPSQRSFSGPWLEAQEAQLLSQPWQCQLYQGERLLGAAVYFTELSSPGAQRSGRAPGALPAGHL


What was measured:
[1] = biological target: T1, hFc tagged human LAG3 D1-D2 recombinant …; assay: ELISA, coated hFc-hLAG3 D1-D2
Method: Binding activity of the purified hybridoma antibodies against human LAG3 was detected by ELISA assay using hFc tagged human LAG3 D1-D2 recombinant protein. Briefly the antibodies were incubated with ELISA microplate coated antigens at 37° C. for 1 hour. After washing, horseradish peroxidase (HRP) labeled anti-human IgG 2nd Ab (Sigma) was added and incubated at 37° C. for 1 hour. Then, 100 μl/well of TMB solution (Biotechnology) was added. After incubation for 15 minutes at room temperature, the reaction was stopped by the addition of 50 μl of 1N HCl. OD 450 nm was read and EC₅₀ was calculated using GraphPad Prism9.0.

[2] = biological target: T2, human LAG3, full length, stably …; assay: FACS on 293F-human LAG3 cells
Method: (§1) Briefly the antibodies were incubated with 2×10⁵ target cells at 4° C. for 1 hour. After washing, fluorescence labeled anti-mouse IgG 2nd antibody (Life Technologies) was added and incubated at 4° C. for 1 hour. Geometric median fluorescence intensity (MFI) was detected and EC₅₀ was calculated using GraphPad Prism9.0.

[3] = biological target: T3, mouse LAG3, full length, stably …; assay: FACS on CHOK1 cells expressing mouse LAG3
Method: as §1

[4] = biological target: T4, hFc tagged human LAG3 ECD recombinant …; assay: competitive FACS: hFc-LAG3 ECD binding to Raji cells (MHC II)
Method: Competitive FACS assay was used to determine whether the purified hybridoma antibodies can block LAG3 and MHC II interaction. […] After washing, dye labeled anti-human Fc 2nd antibody (Sigma) was added and incubated at 37° C. for 1 hour. Fluorescence intensity was detected.

[5] = biological target: T4, hFc tagged human LAG3 ECD recombinant …; assay: competitive ELISA: excess competitor, biotin hFc-LAG3 ECD, coated BAP-050
Method: (§2) Competitive ELISA assay was used for epitope binning of the purified hybridoma antibodies. […] After washing, HRP labeled anti-streptavidin (SA) 2nd antibody (Sigma) was added and incubated at 37° C. for 1 hour. Then, 100 μl/well of TMB solution (Biotechnology) was added. After incubation for 15 minutes at room temperature, the reaction was stopped by the addition of 50 μl of 1N HCl. OD 450 nm was read. Competition ratio was calculated.

[6] = biological target: T4, hFc tagged human LAG3 ECD recombinant …; assay: competitive ELISA: excess competitor, biotin hFc-LAG3 ECD, coated BMS-986016
Method: as §2

[7] = biological target: T2, human LAG3, full length, stably …; assay: FACS on 293F cells stably expressing human LAG3
Method: as §1
MFI was detected and EC₅₀ was calculated using GraphPad Prism9.0.

[8] = biological target: T5, mFc tagged human LAG3 ECD recombinant …; assay: competitive FACS: mFc-LAG3 ECD binding to Raji cells (MHC II)
Method: Activity of the purified chimeric antibodies to block LAG3 and MHC II interaction was determined by competitive FACS assay. […] After washing, dye labeled anti-mouse Fc 2nd antibody (Sigma) was added and incubated at 37° C. for 1 hour. Fluorescence intensity was detected.

[9] = biological target: T6, human LAG3 ECD recombinant protein …; assay: competitive ELISA format I: His-FGL1 binding to coated LAG3 ECD
Method: After washing, HRP labeled anti-His 2nd antibody (Sigma) was added and incubated at 37° C. for 1 hour. Then, 100 μl/well of TMB solution (Biotechnology) was added. After incubation for 15 minutes at room temperature, the reaction was stopped by the addition of 50 μl of 1N HCl. OD 450 nm was read. […] After washing, HRP labeled anti-SA 2nd antibody (Sigma) was added and incubated at 37° C. for 1 hour. Then, 100 μl/well of TMB solution (Biotechnology) was added. After incubation for 15 minutes at room temperature, the reaction was stopped by the addition of 50 μl of 1N HCl. OD 450 nm was read. […] The competition assay of format III is a competitive FACS assay. […] After washing, dye labeled anti-His 2nd antibody (Sigma) was added and incubated at 37° C. for 1 hour. Fluorescence intensity was detected.

EC50 [1] [nM]	EC50 [2] [nM]	binding result [3]	IC50 [4] [nM]	TOP blocking (%) [4] [%]	% competition [5] [%]	% competition [6] [%]	EC50 [7] [nM]	TOP MFI [7]	IC50 [8] [nM]	TOP blocking (%) [8] [%]	Blocking ratio at 66.7 nM (%) [9] [%]	Binder
0.05	1.19	no binding	7.6	92.9	10	41.7	–	–	–	–	–	Antibody 048 (antibody, V domains shown, mouse hybridoma antibody) VH: EFQVQQSGPELVKPGASVKISCKASGYSFSDYNMNWLKQSTGKSLEWIGLVDPIYGTIRYNQKFKGKATLTVDQSSSTAYMQLNSLTSEDSAVYYCALITTSVRYFDYWGQGTTLTVSS VL: DVLMTQTPLSLPVSLGDQASISCRSSQNIVHTDGNTYLEWYLQKPGQSPKLLIYKVSNRFSGVPDRFSGSGSGTDFTLKISRVEAEDLGVYYCFQGSHVPPTFGGGTKLEIK
–	–	–	–	–	–	–	1.4	337	2.5	95.1	33.3	057c (antibody, human IgG4, V domains shown, human IgG4 S228P / kappa chimeric antibody; also called chimeric antibody 057; not shown: human kappa light chain constant region (pcDNA3.4-hIgGk vector)) VH: QVQLQQSGAELARPGASVKLSCKASGFSFTSYGINWVKQRTGQGLEWIGEIYPRSGNTYYNEKLKGEATLTADRSSSTAYMELRSLTSEDSAVYFCARGGTYDGYYYAMDYWGQGTSVTVSS VL: NIVLTQSPASLAVSLGQRATISCRASESVDNFGSSFMHWYQQKPGQAPKLLIYRASNLESGIPARFGGSGSGTDFTLTIDPVETDDVATYYCQQVNKDPRTFGGGTKLEIK

The remaining lines, values behind:

Binder	EC50 [1] [nM]	EC50 [2] [nM]	binding result [3]	IC50 [4] [nM]	TOP blocking (%) [4] [%]	% competition [5] [%]	% competition [6] [%]	EC50 [7] [nM]	TOP MFI [7]	IC50 [8] [nM]	TOP blocking (%) [8] [%]	Blocking ratio at 66.7 nM (%) [9] [%]
035c (antibody, human IgG4, V domains shown, human IgG4 S228P / kappa chimeric antibody; also called chimeric antibody 035; not shown: human kappa light chain constant region (pcDNA3.4-hIgGk vector)) VH: QVQLQQSGAELARPGASVKLSCKASGYSFTSYGINWVKQRTGQGLEWIGEIYPRSGNTYYNEKFKDKATLTADKSSSTAYMELRSLTSEDSAVYFCARGGTYDGYYYAMDFWGQGTSVTVSS VL: DIVLTQSPASLAVSLGQRATISCRASESVDNFGSSFLHWYQQKPGQAPKLLIYRASNLESGIPARFSGSGSRTDFTLTINPVETDDVATYYCQQVNKDPRTFGGGTKLEIK	–	–	–	–	–	–	–	1.3	333	4.3	95.9	24.3
024c (antibody, human IgG4, V domains shown, human IgG4 S228P / kappa chimeric antibody; also called chimeric antibody 024; not shown: human kappa light chain constant region (pcDNA3.4-hIgGk vector)) VH: EVQLQQSGPELVKPGASVKISCKASGYTFTDYYMNWVKQSHGKRLEWIGDIDPNNGGTSYNQKFKGKATLTVDKSSSSAYMDLRSLTSEDSAVYYCARAGSYYYGSSYVEYFDVWGTGTTVTVSS VL: DIQMTQSPASLSASVGETVTITCRASGNIHNYLAWYQQKQGASPQLLVYNAKTLADGVPSRFSGSGSGTEFSLKINSLQPEDFGNYYCQHFWNTPYTFGGGTKLEIK	–	–	–	–	–	–	–	1.1	346	3.7	96.9	39.4
